Experimental findings from PMC7680425 (Cell chemical biology, 2020) are described below.

* marks the point of attachment. CONH‑phenylbutyl = C-terminal alpha-ketoamide warhead with phenylbutyl on the amide nitrogen, O=C(NCCCCc1ccccc1)*; B(OH)2 = C-terminal boronate warhead, OB(O)*

For experiment [1], the target named is T1, E. coli GlpG consisting of residues 87-276 (ΔN-GlpG) (E. coli, UniProt P09391 87-276).
T1 sequence (looked up): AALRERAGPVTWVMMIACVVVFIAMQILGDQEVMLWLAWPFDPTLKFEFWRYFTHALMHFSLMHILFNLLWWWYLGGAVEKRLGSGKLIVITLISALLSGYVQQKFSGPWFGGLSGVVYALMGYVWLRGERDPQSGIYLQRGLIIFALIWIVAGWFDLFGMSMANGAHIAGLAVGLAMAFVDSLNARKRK
Kind of experiment: crystal structure.

For experiment [2], the target named is P. falciparum rhomboid protease PfROM4 (HA-tagged) (P. falciparum). As to the kind of experiment: cell-based or functional assay.

B1: rhomboid-inhibiting boronate (RiBn), Ac-KRFRSMQYSA-B(OH)2 (peptide)
peptide: Ac-KRFRSMQYSA-{B(OH)2}
SMILES: CSCC[C@H](NC(=O)[C@H](CO)NC(=O)[C@H](CCCNC(=N)N)NC(=O)[C@H](Cc1ccccc1)NC(=O)[C@H](CCCNC(=N)N)NC(=O)[C@H](CCCCN)NC(C)=O)C(=O)N[C@@H](CCC(N)=O)C(=O)N[C@@H](Cc1ccc(O)cc1)C(=O)N[C@@H](CO)C(=O)N[C@@H](C)C(=O)B(O)O
As for B1, the binding result in experiment [1] is recorded as “binds”.
As to Ac-RVWHA-{CONH‑phenylbutyl} [rhomboid-inhibiting ketoamide (RiKa), Ac-RVWHA-CONH-phenylbutyl], in experiment [1], the binding result is listed as “binds”. The “EC50 of inhibition of EBA175 cleavage by PfROM4 in HEK293T cells” value in experiment [2] came out at 55 nM.
